# According to patent US20260137799A1, “ANTI-MUC1* ANTIBODY DRUG COMPLEXES AND USES THEREOF” (Minerva Biotechnologies Corporation, priority 2023, published 2026):
# T1: PSMGFR C-10 peptide
# T1 peptide: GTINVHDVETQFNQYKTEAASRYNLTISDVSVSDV
# How the values were obtained:
# [1] = system: H2110-wt lung cancer cell line; assay: xCELLigence impedance cytotoxicity, H2110; format: cell-based, human; conditions: Example 9 (FIGS. 35-36); read-out: IC50, lung cancer H2110-wt cells
# Experimental: (§1) An xCELLigence RTCA MP Instrument (Agilent) was used to assess real-time killing of target cancer cells). In the xCELLigence system, target cancer cells, which are adherent, are plated onto electrode array 96-well plates. Adherent cells insulate the electrode and increase the impedance. The number of adherent cancer cells is directly proportional to impedance. […] Therefore, increasing impedance reflects the growth of the cancer cells and decreasing impedance reflects the killing of the cancer cells.
# (§2) Target Cancer cells (Table 9) were seeded onto a multi-electrode well plate at a density of 5000 cells/well (100 μL of a 50,000 cells/mL stock) and incubated for 24 hr in a 37° C./5% CO2 incubator. ADCs were prepared as a 2× solution in corresponding growth media and 100 μL of each concentration was added to target cells. As a positive control (100% cell killing) cells were treated with either 1% triton or 1 μM Taxol instead of ADC. After 40-120 hours incubation in a 37° C./5% CO2 incubator cell killing was assessed. In this assay, impedance is measured in real-time. When the adherent cancer cells are killed and come off the electrode surface, impedance (insulation) decreases.
# (§3) To directly compare the C2 and 3C2B1 anti-MUC1* antibodies as ADC targeting domains, a panel of MUC1* positive cancer cell lines representing different cancer types were treated with C2-deruxtecan versus 3C2B1-deruxtecan (FIG. 35) or C2-MC-VA-PAB-exatecan versus 3C2B1-MC-VA-PAB-exatecan (FIG. 36). In some cases, the cancer cells were engineered to express high levels of MUC1*45.
# T47D = assay: xCELLigence impedance cytotoxicity, T47D; format: cell-based, human; conditions: Example 9 (FIGS. 35-36); average over batches for DXd ADCs; read-out: IC50 for killing of breast cancer T47D-wt cells
# Experimental: as §1, §2
# NCI-H1975 = assay: xCELLigence impedance cytotoxicity, NCI-H1975; format: cell-based, human; conditions: Example 9 (FIGS. 35-36); read-out: IC50 for killing of H1975-wt cells
# Experimental: as §1, §2
# MUC1*45 = MUC1*45 (UniProt P15941 1110-1255); assay: cell-based or functional assay
# [2] = system: CFPAC1-wt pancreatic cancer cell line; assay: xCELLigence impedance cytotoxicity, CFPAC1; format: cell-based, human; conditions: Example 9 (FIGS. 35-36); read-out: IC50, CFPAC1-wt pancreatic cancer cells
# Experimental: as §1, §2, §3
# [3] = Toxicity in animal studies; format: in vivo; conditions: each antibody incorporated into several ADC formats
# From the text: Exatecans and deruxtecans can also have bystander effects. […] It is not completely clear whether these side effects are due to the payload or to the HER2 target, which is also expressed on normal lung and normal heart. The first two patients treated with a HER2 targeting CAR T cell product died shortly after the infusion. […] More recently, yet another patient died after being treated with a different HER2-targeting ADC. […] 32CB1, C2 and 20A10 unexpectedly have an extremely high degree of cancer specificity and elicited no toxicities in animal studies, where each antibody was incorporated into several ADC formats.
# PSMGFR C-10 peptide = biological target: T1, PSMGFR C-10 peptide; assay: ELISA on PSMGFR C-10 peptide; Table 4 grade
# HPAFII = assay: PrestoBlue live/dead cell assay, HPAFII; format: cell-based, human; conditions: Presto Blue; 72-120 hour incubation
# Experimental: (§4) Another method of measuring the killing activity of ADCs against target cancer cells is to use the PrestoBlue live/dead cell assay (ThermoFisher). Target cancer cells were seeded in a black-walled, clear-bottom 96-well tissue culture plate at a density of 5000 cells/well (100 μL of a 50,000 cells/mL stock) and incubated overnight in a 37° C./5% CO2 incubator. ADCs were prepared as a 2× solution in corresponding cancer cell growth media and 100 μL of each concentration was added to target cancer cells. As a positive control (100% killing) cancer cells were treated with 1 μM Taxol instead of ADC. After 72 hour-120 hour incubation in a 37° C./5% CO2 incubator, cell viability was measure by fluorescence using the PrestoBlue HS assay (ThermoFisher). Briefly, after the incubation period, 20 μL of PrestoBlue HS solution was added. Fluorescence (Ex 560 nm/Em 590 nm) was recorded after 30-90 min. incubation using a Tecan plate reader. Percentage viability was determined by PrestoBlue HS staining and normalized to 1 μM taxol treated cells.
# (§5) The normalized fluorescence values were imported into the graph program, Sigma Plot, data plotted as ADC concentration versus normalized fluorescence signal and curve fitted using a four-parameter Hill equation: f=y0+a*x^b/(c^b+x^b) to calculate IC50 values. IC50 values for the ADCs were generally consistent between the xCELLigence and Presto Blue assays.
# HPAFII-MUC1* = assay: PrestoBlue live/dead cell assay, HPAFII-MUC1*; format: cell-based, human; conditions: Presto Blue; 72-120 hour incubation
# Experimental: as §4, §5
# T47D-MUC1* = assay: PrestoBlue live/dead cell assay, T47D-MUC1*; format: cell-based, human; conditions: Presto Blue; 72-120 hour incubation
# Experimental: as §4, §5
# [4] = system: breast cancer, pancreatic cancer, and lung cancer cell lines; assay: Cytotoxicity of ADCs with additional linkers and toxins (FIGS. 30-31); format: cell-based; conditions: breast cancer and pancreatic cancer cell
# Experimental: FIG. 30 is a table showing cytotoxicity of the indicated MUC1* ADCs against indicated cancer cells. IC50 values were determined from xCELLigence data. FIG. 30 discloses “GGFG” as SEQ ID NO: 160, “GGGG” as SEQ ID NO: 161, “GGVA” as SEQ ID NO: 162, “GGVG” as SEQ ID NO: 163.
# FIG. 31 is a table showing cytotoxicity of the indicated MUC1* ADCs against indicated cancer cells. IC50 values were determined from PrestoBlue data.
# An anti-MUC1* antibody was conjugated to several toxins via a number of different linkers (compounds VIII-XXII).
molecule,measurement,setting,value
"3C2B1-MC-VA-PAB-exatecan (antibody, V domains shown, MC-VA-PAB-exatecan on reduced cysteine thiols of the antibody, sites not stated; MC-VA-PAB-exatecan on reduced cysteine thiols of the antibody, sites not stated; DAR 5.2) VH: EVMLVESGGGLVKPGGSLKLSCAASGITFSTYTMSWVRQTPEKRLEWVATISTGGDKTYYSDSVKGRFTISRDNAKNNLYLQMSSLRSEDTALYYCARGTTAMYYYAMDYWGQGTSVTVSS VL: DIVLTQSPASLAVSLGQRATISCRASKSISTSDYNYIHWYQQKPGQPPKLLIYLASNLESGVPARFSGSGSGTDFTLNIHPVEEEDAATYYCQHSRELPLTFGAGTKLELK",IC50,[1],113 nM
same,IC50,T47D,77 nM
same,IC50,NCI-H1975,189 nM
same,"IC50, killing of H1975 cells engineered to express MUC1*45 (xCELLigence)",MUC1*45,141 nM
same,"IC50, killing of T47D cells engineered to express more MUC1*45 (xCELLigence)",MUC1*45,31 nM
same,IC50,[2],40 nM
"20A10: anti-MUC1* monoclonal antibody, IgG2b isotype (antibody) VH: EVMLVESGGGLVKPGGSLKLSCAASGFTFSTYAMSWIRQTPEKRLEWVASIGRAGSTYYSDSVKGRFTISRDNVRNILYLQMSSLRSEDTAMYYCARGPIYNDYDEFAYWGQGTLVTVSAAKTTPPSVYPLAPGCGDTTGSSVTLGCLVKGYFPESVTVTWNSGSLSSSVHTFPALLQSGLYTMSSSVTVPSSTWPSQTVTCSVAHPASSTTVDKKLEPSGPISTINPCPPCKECHKCPAPNLEGGPSVFIFPPNIKDVLMISLTPKVTCVVVDVSEDDPDVRISWFVNNVEVHTAQTQTHREDYNSTIRVVSALPIQHQDWMSGKEFKCKVNNKDLPSPIERTISKIKGLVRAPQVYILPPPAEQLSRKDVSLTCLVVGFNPGDISVEWTSNGHTEENYKDTAPVLDSDGSYFIYSKLDIKTSKWEKTDSFSCNVRHEGLKNYYLKKTISRSPGK VL: NIMMTQSPSSLAVSAGEKVTMSCKSSQSVLYSSNQKNYLAWYQQKPGQSPKLLIYWASTRESGVPDRFTGSGSGTDFTLTISSVQAEDLAVYYCHQYLSSLTFGAGTKLELKADAAPTVSIFPPSSEQLTSGGASVVCFLNNFYPKDINVKWKIDGSERQNGVLNSWTDQDSKDSTYSMSSTLTLTKDEYERHNSYTCEATHKTSTSPIVKSFNRNEC",toxicities in animal studies,[3],no toxicities
"anti-MUC1* antibody 20A10 (antibody, IgG2b, V domains shown, Humanised form is m25) VH: EVMLVESGGGLVKPGGSLKLSCAASGFTFSTYAMSWIRQTPEKRLEWVASIGRAGSTYYSDSVKGRFTISRDNVRNILYLQMSSLRSEDTAMYYCARGPIYNDYDEFAYWGQGTLVTVSA VL: NIMMTQSPSSLAVSAGEKVTMSCKSSQSVLYSSNQKNYLAWYQQKPGQSPKLLIYWASTRESGVPDRFTGSGSGTDFTLTISSVQAEDLAVYYCHQYLSSLTFGAGTKLELKA",binding result,PSMGFR C-10 peptide,no binding
"C2-deruxtecan (antibody, mouse IgG1, kappa, deruxtecan (MC-GGFG-AM-DXd) on reduced cysteine thiols of the antibody, sites not stated; deruxtecan (MC-GGFG-AM-DXd) on reduced cysteine thiols of the antibody, sites not stated; average DAR 7.7) VH: EVQLEESGGGLVKPGGSLKLSCAASGFTFSGYAMSWVRQTPEKRLEWVATISSGGTYIYYPDSVKGRFTISRDNAKNTLYLQMSSLRSEDTAMYYCARLGGDNYYEYFDVWGAGTTVTVSSAKTTPPSVYAKTTPPSVYPLAPGSAAQTNSMVTLGCLVKGYFPEPVTVTWNSGSLSSGVHTFPAVLQSDLYTLSSSVTVPSSTWPSETVTCNVAHPASSTKVDKKIVPRDCGCKPCICTVPEVSSVFIFPPKPKDVLTITLTPKVTCVVVDISKDDPEVQFSWFVDDVEVHTAQTQPREEQFNSTFRSVSELPIMHQDWLNGKEFKCRVNSAAFPAPIEKTISKTKGRPKAPQVYTIPPPKEQMAKDKVSLTCMITDFFPEDITVEWQWNGQPAENYKNTQPIMDTDGSYFVYSKLNVQKSNWEAGNTFTCSVLHEGLHNHHTEKSLSHSPGK VL: DIVITQSTASLGVSLGQRATISCRASKSVSTSGYSYMHWYQQRPGQPPKLLIYLASNLESGVPARFSGSGSGTDFTLNIHPVEEEDAATYYCQHSRELPFTFGGGTKLEIKRADAAPTVSADAAPTVSIFPPSSEQLTSGGASVVCFLNNFYPKDINVKWKIDGSERQNGVLNSWTDQDSKDSTYSMSSTLTLTKDEYERHNSYTCEATHKTSTSPIVKSFNRNEC","IC50, killing of H1975 lung cancer cells engineered to express MUC1*45 (xCELLigence)",MUC1*45,54 nM
same,"IC50, killing of T47D breast cancer cells engineered to express MUC1*45 (xCELLigence)",MUC1*45,2 nM
"C2 MC-VC-PAB MMAF (conjugate, listed as Mus sp., MC-VC-PAB-MMAF, ADC: antibody C2 conjugated via MC-VC-PAB linker to MMAF) heavy: EVQLEESGGGLVKPGGSLKLSCAASGFTFSGYAMSWVRQTPEKRLEWVATISSGGTYIYYPDSVKGRFTISRDNAKNTLYLQMSSLRSEDTAMYYCARLGGDNYYEYFDVWGAGTTVTVSSAKTTPPSVYAKTTPPSVYPLAPGSAAQTNSMVTLGCLVKGYFPEPVTVTWNSGSLSSGVHTFPAVLQSDLYTLSSSVTVPSSTWPSETVTCNVAHPASSTKVDKKIVPRDCGCKPCICTVPEVSSVFIFPPKPKDVLTITLTPKVTCVVVDISKDDPEVQFSWFVDDVEVHTAQTQPREEQFNSTFRSVSELPIMHQDWLNGKEFKCRVNSAAFPAPIEKTISKTKGRPKAPQVYTIPPPKEQMAKDKVSLTCMITDFFPEDITVEWQWNGQPAENYKNTQPIMDTDGSYFVYSKLNVQKSNWEAGNTFTCSVLHEGLHNHHTEKSLSHSPGK light: DIVITQSTASLGVSLGQRATISCRASKSVSTSGYSYMHWYQQRPGQPPKLLIYLASNLESGVPARFSGSGSGTDFTLNIHPVEEEDAATYYCQHSRELPFTFGGGTKLEIKRADAAPTVSADAAPTVSIFPPSSEQLTSGGASVVCFLNNFYPKDINVKWKIDGSERQNGVLNSWTDQDSKDSTYSMSSTLTLTKDEYERHNSYTCEATHKTSTSPIVKSFNRNEC",IC50,HPAFII,100 nM
same,IC50,HPAFII-MUC1*,90 nM
same,IC50,T47D-MUC1*,1.3 nM
"C2 MC-VA-AM DXd (conjugate, listed as Mus sp., conjugated MC-VA-AM DXd linker-toxin) heavy: EVQLEESGGGLVKPGGSLKLSCAASGFTFSGYAMSWVRQTPEKRLEWVATISSGGTYIYYPDSVKGRFTISRDNAKNTLYLQMSSLRSEDTAMYYCARLGGDNYYEYFDVWGAGTTVTVSSAKTTPPSVYAKTTPPSVYPLAPGSAAQTNSMVTLGCLVKGYFPEPVTVTWNSGSLSSGVHTFPAVLQSDLYTLSSSVTVPSSTWPSETVTCNVAHPASSTKVDKKIVPRDCGCKPCICTVPEVSSVFIFPPKPKDVLTITLTPKVTCVVVDISKDDPEVQFSWFVDDVEVHTAQTQPREEQFNSTFRSVSELPIMHQDWLNGKEFKCRVNSAAFPAPIEKTISKTKGRPKAPQVYTIPPPKEQMAKDKVSLTCMITDFFPEDITVEWQWNGQPAENYKNTQPIMDTDGSYFVYSKLNVQKSNWEAGNTFTCSVLHEGLHNHHTEKSLSHSPGK light: DIVITQSTASLGVSLGQRATISCRASKSVSTSGYSYMHWYQQRPGQPPKLLIYLASNLESGVPARFSGSGSGTDFTLNIHPVEEEDAATYYCQHSRELPFTFGGGTKLEIKRADAAPTVSADAAPTVSIFPPSSEQLTSGGASVVCFLNNFYPKDINVKWKIDGSERQNGVLNSWTDQDSKDSTYSMSSTLTLTKDEYERHNSYTCEATHKTSTSPIVKSFNRNEC",IC50 compared to deruxtecan ADC,[4],three-fold lower
